# Columns and labels:
# DKK3 = biological target: T1, DKK3 (Homo sapiens, UniProt Q9UBP4); experiment: Cell surface binding of His-tagged rhDKK3 by flow cytometry; settings: BxPC3 or L3.6p1 cells, rhDKK3 10 μg/ml, JM6-6-1 70 μg/ml
# T1 construct: purchased R&D
# Protocol: FIGS. 11A-C. DKK3 expression in autochthonous model of PDAC and effects of DKK3 mAb on cell surface binding of DKK3 and orthotopic model. (FIG. 11A) DKK3 expression was measured by qPCR in pancreatic tumors from P48-Cre; Kras LSL-G12D;Trp53fl/fl and P48-Cre; Kras LSL-G12D;Trp53fl/+ mice that are either wild type DKK3 or heterozygous or homozygous DKK3-null. Relative expression of DKK3 mRNA in DKK3+/− hetero mice is 53% of DKK3^+/+ mice. (FIG. 11B) DKK3 cell surface binding was assessed by incubating BxPC3 or L3.6p1 cells with His-tagged rhDKK3 (10 μg/ml) with or without JM6-6-1 (70 μg/ml) and positive cells were sorted by flow cytometry. (FIG. 11C) Mice bearing orthotopic BxPC3 tumors were treated with DKK3 mAb JM6-6-1 (5 mg/kg i.p. once every 5 days). Overall tumor progression was measured every 3-4 days by IVIS imaging.
# Binding assay. Cell surface binding of DKK3 was performed using flow cytometry. In brief, BxPC3 or L3.6p1 cells (0.5×10^6) were incubated for 30 min with His-labeled rhDKK3 (10 μg/mL) with or without JM6-6-1 (70 μg/mL). After washing with binding buffer (3% BSA in PBS), cells were stained with 1:100 anti-His antibody (abCam) for 30 min and followed by staining with secondary antibody conjugated with Dylight488 for 20 min. The cells were fixed with 2% paraformaldehyde and were subjected to fluorescent signal detection by BD FACSCalibur.
# [1] = test system: KPC/DKK3-/- model of PDAC; experiment: Survival of KPC/DKK3-/- mice (P48-Cre; Kras LSL-G12D;Trp53fl/fl; dkk3-/-); assay type: in vivo, mouse
# Protocol: HPSCs and BxPC3 cells were treated with DKK3 mAb clones JM6-6-1 and JM8-12-1 or isotype control mAb or PBS. (FIGS. 5A-B) HPSC apoptosis and migration as measured by FACS and Transwell migration assay at 48 hours. (FIG. 5C) BxPC3 migration in response to rhDKK3 10 μg/ml as measured by Transwell migration assay at 48 hours. (FIG. 5D) BxPC3 resistance to gemcitabine 100 μM as measured by MTS proliferation assay at 6 days. HPSC-CM, pancreatic stellate cell conditioned media, 10 μg/ml. The orthotopic co-injection BxPC3+ HPSC model of PDAC was used to test the efficacy of DKK3 mAb clones JM6-6-1 or JM8-12-1 (5 mg/kg i.p. once every 5 days). (FIG. 5E) Overall tumor progression was measured every 3-4 days by IVIS imaging. […]
# FIGS. 6A-F. DKK3 blockade is associated with increased tumor immune infiltrates and improves response to checkpoint inhibitor therapy. (FIG. 6A) T cells were stimulated, treated with DKK3 (5-10 μg/mL) and proliferation was measured by CFSE assay. In a syngeneic orthotopic model with luciferase-labeled KPC cells, tumors were examined for CD3 and CD8 expression by IHC (FIG. 6B) and additional markers of T cell activity were measured by quantitative PCR (FIG. 6C). Mice in this model were treated with either control IgG, DKK3 mAb JM6-6-1, αCTLA4 or the combination JM6-6-1+αCTLA4 and tumor growth was measured by IVIS imaging to 25 and 190 days (FIG. 6D). […]
# T1 sequence (Q9UBP4 22-350): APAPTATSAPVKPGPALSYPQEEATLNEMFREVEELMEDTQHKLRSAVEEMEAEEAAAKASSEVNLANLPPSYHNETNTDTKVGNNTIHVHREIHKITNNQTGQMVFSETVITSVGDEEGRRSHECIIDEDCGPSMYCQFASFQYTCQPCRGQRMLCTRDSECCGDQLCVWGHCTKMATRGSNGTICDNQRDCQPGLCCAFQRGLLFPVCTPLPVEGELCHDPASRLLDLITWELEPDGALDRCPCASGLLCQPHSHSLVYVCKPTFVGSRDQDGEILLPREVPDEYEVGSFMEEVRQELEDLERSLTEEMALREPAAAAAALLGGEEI
molecule,measurement,setting,value
"JM6-6-1: monoclonal antibody against human DKK3; heavy chain variable SEQ ID NO: 19, light chain variable SEQ ID NO: 20 (antibody, V domains shown) VH: EVKLVESGGGLVKPGGSLKLSCAASGFTFTIEYMAWIRQTPEKRLEWVASISSGGDDIYYADNVKGRFTISRDNAKNTLYLQMSSLKSEDTAIYYCSRSLSDWGQGTTLTVSSAKTTPPSDYPLA VL: MTQTPLSLPVSLGDQASISCRSSQSILHSNGHTYLEWYLQKPGQSPKLLIYKVSNRFSGVPDRFSGSGSGTDFTLKISRVEAEDLGVYYCFQGSHVPFTFGSGTKLEIERADAAQ",blocking of rhDKK3 binding to PDAC cells,DKK3,effective in blocking binding of rhDKK3 to PDAC cells
same,effect on survival compared to PBS or control mAb,[1],no effect on survival
same,median survival,[1],58 days

# Reference: US20210340232A1, “MONOCLONAL ANTIBODIES AGAINST HUMAN DICKKOPF3 AND USES THEREOF” (Board of Regents, The University of Texas System, priority 2018, published 2021)
